# Results reported in IntAct's records for PubMed 23460737.
# B1: Protein THEMIS (Homo sapiens), Q8N1K5-1 (parent)
# chain: MALSLEEFVHSLDLRTLPRVLEIQAGIYLEGSIYEMFGNECCFSTGEVIKITGLKVKKIIAEICEQIEGCESLQPFELPMNFPGLFKIVADKTPYLTMEEITRTIHIGPSRLGHPCFYHQKDIKLENLIIKQGEQIMLNSVEEIDGEIMVSCAVARNHQTHSFNLPLSQEGEFYECEDERIYTLKEIVEWKIPKNRTRTVNLTDFSNKWDSTNPFPKDFYGTLILKPVYEIQGVMKFRKDIIRILPSLDVEVKDITDSYDANWFLQLLSTEDLFEMTSKEFPIVTEVIEAPEGNHLPQSILQPGKTIVIHKKYQASRILASEIRSNFPKRHFLIPTSYKGKFKRRPREFPTAYDLEIAKSEKEPLHVVATKAFHSPHDKLSSVSVGDQFLVHQSETTEVLCEGIKKVVNVLACEKILKKSYEAALLPLYMEGGFVEVIHDKKQYPISELCKQFRLPFNVKVSVRDLSIEEDVLAATPGLQLEEDITDSYLLISDFANPTECWEIPVGRLNMTVQLVSNFSRDAEPFLVRTLVEEITEEQYYMMRRYESSASHPPPRPPKHPSVEETKLTLLTLAEERTVDLPKSPKRHHVDITKKLHPNQAGLDSKVLIGSQNDLVDEEKERSNRGATAIAETFKNEKHQK
# partner: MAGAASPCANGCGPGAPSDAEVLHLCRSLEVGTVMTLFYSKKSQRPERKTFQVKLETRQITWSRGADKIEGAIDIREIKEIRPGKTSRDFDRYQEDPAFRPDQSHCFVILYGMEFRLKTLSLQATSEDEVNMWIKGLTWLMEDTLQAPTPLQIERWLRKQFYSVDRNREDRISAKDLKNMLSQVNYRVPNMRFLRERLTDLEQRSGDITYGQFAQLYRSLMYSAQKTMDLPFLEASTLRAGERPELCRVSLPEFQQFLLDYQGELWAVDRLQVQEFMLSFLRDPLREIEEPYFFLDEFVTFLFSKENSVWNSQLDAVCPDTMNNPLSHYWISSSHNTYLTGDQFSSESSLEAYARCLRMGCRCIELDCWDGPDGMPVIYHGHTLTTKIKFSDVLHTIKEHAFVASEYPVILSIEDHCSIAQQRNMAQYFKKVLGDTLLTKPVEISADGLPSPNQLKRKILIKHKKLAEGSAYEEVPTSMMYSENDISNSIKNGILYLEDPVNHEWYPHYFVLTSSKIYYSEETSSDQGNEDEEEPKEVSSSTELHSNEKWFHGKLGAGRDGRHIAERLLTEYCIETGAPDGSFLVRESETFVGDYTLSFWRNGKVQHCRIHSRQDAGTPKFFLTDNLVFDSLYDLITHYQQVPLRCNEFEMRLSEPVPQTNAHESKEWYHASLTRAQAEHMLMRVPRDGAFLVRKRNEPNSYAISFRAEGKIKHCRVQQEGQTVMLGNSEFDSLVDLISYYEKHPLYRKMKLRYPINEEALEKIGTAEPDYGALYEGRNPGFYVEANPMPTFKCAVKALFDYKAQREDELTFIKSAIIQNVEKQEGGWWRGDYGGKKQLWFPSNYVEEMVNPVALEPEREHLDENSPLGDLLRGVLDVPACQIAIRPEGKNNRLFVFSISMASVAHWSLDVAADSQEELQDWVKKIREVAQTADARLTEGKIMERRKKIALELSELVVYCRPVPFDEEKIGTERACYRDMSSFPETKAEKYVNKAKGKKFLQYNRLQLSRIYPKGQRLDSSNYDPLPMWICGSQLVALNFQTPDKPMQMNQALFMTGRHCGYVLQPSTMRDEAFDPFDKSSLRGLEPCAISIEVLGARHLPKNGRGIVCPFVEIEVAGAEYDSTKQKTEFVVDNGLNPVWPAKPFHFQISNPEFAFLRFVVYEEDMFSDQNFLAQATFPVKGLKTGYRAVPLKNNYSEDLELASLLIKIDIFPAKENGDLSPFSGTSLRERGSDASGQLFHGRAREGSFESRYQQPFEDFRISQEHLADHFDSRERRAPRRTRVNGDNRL
# B2: Protein THEMIS (Homo sapiens), Q8N1K5-1 (parent)
# chain: B1 chain
# B3: Protein THEMIS (Mus musculus), Q8BGW0 (parent)
# chain: MALSLEEFVYSLDLRTLPRVLEIQSGIYFEGSVYEMFGNECCLSTGEVIKITGLKIKKMMAEICEGAIGGCESQKPFELPMNFPGLFKVMADKTPYLSIEEITRTVNIGPSRLGHPCFYHLKDIKLENLIIKQGEPIRFNSVEEINGETLVNCGVVRNHQSHSFTLPLSQEGEFYECEDEHIYTLKEIVEWKIPKNRTRTVKLTDFSNKWDSTNPFPEDFYGTLILKPVYEIQGVLKFQKDIVRILPSLDVEVKDITDSYDANWFLQLLSTDDLFEMTSKEFPVVAEVVEISQGNHLPQSILQREKTIVIHKKYQASRILASEIRSNFPKRHFLIPISYKGKFKRRPREFPTAYDLQIAKSRKETLHVVATKAFHTLHKELSPVSVGDQFLVHHSETTEVVFEGTRKVNVLTCEKVLNKTREDAQLPLYMEGGFVEVIHDKKQYQISELCTQFCWPFNVKVAVRDLSIKDDILAATPGLQLEEDITDSYLLISDFANPEECWEIPMSRLNMTVRLVNGSSLPADAGLLQVRSFVEEITEEQYYMMRRYESSLSHPPPRPPKHPSAEEMKLTLLSLAEERTINLPKSLKSHHVDRPKKLPSDESGQDSRAPVGFQNDVADVERQKSKHGPLQPQAPL
# Variants of: B1
# Details: with plcg1_human PLCG1, P19174
row,effect of a mutation on the interaction,Variant
1,decreasing interaction strength,P555A;P558A

# Variants of: B2
# Details: with grb2_human GRB2, P62993
row,effect of a mutation on the interaction,Variant
1,disrupting interaction strength,R556A
2,disrupting interaction strength,P557A
3,disrupting interaction strength,P554A
4,disrupting interaction strength,K559A

# Variants of: B2
# Details: with grb2_human GRB2, P62993
# Remark: another data set of the same source
row,effect of a mutation on the interaction,Variant
1,disrupting interaction strength,Y540F;Y541F

# Variants of: B2
# Details: with grb2_human GRB2, P62993
# Remark: another data set of the same source
row,effect of a mutation on the interaction,Variant
1,with no effect,Y540F;Y541F
2,with no effect,Y540A;Y541A

# Variants of: B2
# Details: with grb2_human GRB2, P62993
# Remark: another data set of the same source
row,effect of a mutation on the interaction,Variant
1,disrupting interaction strength,P555A;P558A

# Variants of: B2
# Details: with grb2_human GRB2, P62993
# Remark: another data set of the same source
row,effect of a mutation on the interaction,Variant
1,disrupting interaction strength,P555A;P558A
2,with no effect,P582A;P585A

# Variants of: B3
# Details: with grb2_human GRB2, P62993
row,effect of a mutation on the interaction,Variant
1,disrupting interaction strength,P557A;P560A
